By Kd is commonly meant a measure of binding affinity in units of concentration. A word on the koff: it is the first-order rate constant of dissociation. Usually kon stands for the second-order rate constant of association. As a reminder, the EC50 is the concentration that produces a half-maximal response.

The target of one assay is T1, murine serum albumin (murine, UniProt P07724 25-608).
T1 construct: As antigen 'MSA' means murine serum albumin; the VHHs also carry the label MSA; also called MSA
Description: BLI (Gator), His-tagged VHH on anti-His sensor, murine serum albumin 100 nM in solution.

For the next assay, the target named is T2, human serum albumin (human, UniProt P02768 25-609).
T2 construct: also called HSA
Description: BLI (Gator), His-tagged VHH on anti-His sensor, HSA 100 nM in solution.

Assay [1] concerns the target T3, EGFR Fc (human, UniProt P00533 25-645).
T3 construct: also called EGFR-hFc; recombinant human EGFR-Fc
Description: blocking ELISA, EGFR-hFc + VHH at 0.32 nM on coated EGF-mFc. On the technique in general: An ELISA detects its analyte on a solid surface through an enzyme-linked reagent.
Description: (§1) After incubation at 4° C. overnight, the plate was washed four times of PBST and blocked with 200 μl per well of 2% BSA for one hour at room temperature. […] The plate was washed twice with PBST, and the pre-mixed samples were added to the 96-well plate shaking at 60 rpm for one hour at room temperature. After four washes of PBST, the plate was incubated with detecting antibody anti-his-HRP (1:4000 dilution) 100 μl per well for one hour with shaking at 60 rpm. The plate was washed with four times of PBST and added 100 μl per well of substrate TMB followed by 50 μl of stop solution.

The target in assay [2] is T3, EGFR Fc. Description: blocking ELISA, EGFR-hFc + VHH at 8 nM on coated EGF-mFc.
Description: as §1
The target in assay [3] is T3, EGFR Fc. Briefly: ELISA, EGFR Fc coated, VHH at 10 nM.
Description: (§2) After four rounds of washing with PBST, the plate was incubated with detecting antibody anti-his-HRP (1:4000 dilution) 100 μl per well for one hour with shaking at 60 rpm. The plate was developed with 100 μL of TMB per well in the dark and then stopped by 50 μL of stop solution per well. […] Data was analyzed using GraphPad Prisma 9.1.
Assay [4] addresses T3, EGFR Fc. Briefly: ELISA, EGFR Fc coated, VHH at 0.4 nM.
Description: as §2
For assay [5], the target named is T4, EGFR (recombinant human, BLI antigen) (human, UniProt P00533 25-645).
T4 construct: also called rh-EGFR; human EGFR
Description: BLI (Octet) as in Example 1.

Assay [6] concerns the target T3, EGFR Fc. Description: ELISA, EGFR Fc coated, VHH at 50 nM.
Description: as §2
The target of assay [7] is T3, EGFR Fc. Briefly: ELISA, EGFR Fc coated, VHH at 0.0032 nM.
Description: as §2
The target in assay [8] is T3, EGFR Fc. Description: ELISA, EGFR Fc coated.
Description: as §2
For assay [9], the target named is T3, EGFR Fc. Briefly: ELISA, EGFR Fc coated, VHH at 0.016 nM.
Description: as §2
Assay [10] has as its target T3, EGFR Fc. Description: blocking ELISA, EGFR-hFc + VHH at 0 nM on coated EGF-mFc.
Description: as §1
The target of assay [11] is T3, EGFR Fc. Briefly: ELISA, EGFR Fc coated, VHH at 2 nM.
Description: as §2
The target in assay [12] is T3, EGFR Fc. Briefly: ELISA, EGFR Fc coated, VHH at 500 nM.
Description: as §2
The target in assay [13] is T3, EGFR Fc. Briefly: blocking ELISA, EGFR-hFc + VHH at 200 nM on coated EGF-mFc.
Description: as §1
For assay [14], the target named is T3, EGFR Fc. Briefly: ELISA, EGFR Fc coated, VHH at 0.08 nM.
Description: as §2
Assay [15] deals with T3, EGFR Fc. Briefly: blocking ELISA, EGFR-hFc + VHH at 40 nM on coated EGF-mFc.
Description: as §1
In assay [16] the target is T3, EGFR Fc. Briefly: blocking ELISA, EGFR-hFc + VHH at 1.6 nM on coated EGF-mFc.
Description: as §1
In assay [17] the target is T3, EGFR Fc. Briefly: blocking ELISA, EGFR-hFc + VHH at 1000 nM on coated EGF-mFc.
Description: as §1
The target of assay [18] is T4, EGFR (recombinant human, BLI antigen). Description: BLI (Octet) as in Example 1; printed under the head Kdis(1/s), read as kon. A general note: Biolayer interferometry detects binding as a change in optical thickness at a sensor tip.
Assay [19] deals with T3, EGFR Fc. Description: blocking ELISA, EGFR-hFc + VHH at 0.064 nM on coated EGF-mFc.
Description: as §1
Assay [20] has as its target T4, EGFR (recombinant human, BLI antigen). Briefly: BLI (Octet) as in Example 1; printed under the head Kon(1/Ms), read as koff.

Description for human serum albumin: (§3) Kinetic binding analysis of MSA VHHs were performed with Gator Prime system equipped with analyze software. […] The experiments were done at 30° C. Prior to analysis, sensors were socked in Q buffer for 600 sec with shaking at 1000 rpm, and then 2 μM of HIS tagged MSA VHHs were loaded to Anti-His sensors with shaking at 400 rpm for 120 sec. Loaded sensors were transferred into Q buffer for 60 sec. Association of HSA or MSA at 100 nM was initiated and monitored for 120-180 sec with shaking at 1000 rpm, and finally dissociation in Q buffer for 120-180 sec with 1000 rpm shaking. Software V2.0 (Gator Bio) was used for data analysis. The on-rate (Kₒₙ) and off-rate (Kd) were determined by fitting of the association and dissociation phases of each sample. The mathematical model used assumes a 1:1 stoichiometry, fitting only one analyte in solution binding to one binding site on the surface. The equilibrium dissociation constant (KD), a measure for affinity, was then calculated as the ratio of Kd and Kₒₙ.
Description for murine serum albumin: as §3

B1: Humanized MSA4-1 (VHH)
VHH: EVQLVESGGGLVQPGGSLRLSCAASGRTDSAYRMGWFRQAPGKEREFVSAINWSDGRTVYLDSVKGRFTISRDNAKNTLYLQMNSLRAEDTAVYYCAADPDSRLYYTVPQNYDYWGQGTQVTVSS
notes: Humanization of MSA4 based on human germline IGHV3-23*04; also called hMSA4-1; not shown: His tag (BLI used HIS tagged MSA VHHs)
In the assay with murine serum albumin, B1 yielded an equilibrium dissociation constant (Kd) of 5.58 nM, a koff of 0.000678 s⁻¹ and a kon of 121000 M⁻¹ s⁻¹. In the assay with human serum albumin, this molecule had a Kd of 5.38 nM, a koff of 0.000545 s⁻¹ and an on-rate constant (kon) of 101000 M⁻¹ s⁻¹.

B2: pgEG-SX22 (VHH, not shown: small tags and cut ends)
VHH: QVQLVESGGGLVQAGGSLRVSCAVSGGALSAYAMAWFRQAPGKEREFVAGLNWGGDETYYADSAKGRFTISKDNAKNTVSLQMNSLEPEDTAVYYCGGRPGPLLSRATGYKYWGQGTQVTVSS
In the case of B2, the OD450 stood at 0.955 with EGFR Fc [1]; 0.736 with EGFR Fc [2]; 1.94 in the assay with EGFR Fc [3]; 1.72 in the assay with EGFR Fc [4]; 1.78 in the assay with EGFR Fc [6]; 0.304 with EGFR Fc [7]. For the same molecule, the OD450 with EGFR Fc [9] is 0.871; in the assay with EGFR Fc [10] it was 1.07; with EGFR Fc [11] it was 1.88; with EGFR Fc [12] it was 2.16; with EGFR Fc [13], 0.903; in the assay with EGFR Fc [14], 1.43. In addition, the OD450 amounted to 0.801 with EGFR Fc [15], 0.864 with EGFR Fc [16], 0.96 with EGFR Fc [17] and 0.983 with EGFR Fc [19]. Moreover, the dissociation constant (Kd) in assay [5] is 0.464 nM. For the same molecule, a half-maximal effect with EGFR Fc [8] (EC50) was put at 0.0072 nM. In addition, the on-rate (kon) in assay [18] amounted to 602000 M⁻¹ s⁻¹. Moreover, in assay [20], the koff was 0.00028 s⁻¹.

B3: pgEG-SX57 (VHH, not shown: small tags and cut ends)
VHH: QVQLVESGGGLVQAGGSLRLSCAGARSIFSIKPMTWYRQAPGKERELVAWFTSGDSPNYADSVKGRFTISRDSAKNTVYLQMNNLKPEDTAVYYCNAVPPLGRWGQGTLVTVSS
In the case of B3, the OD450 was found to be 1.08 with EGFR Fc [1]; 0.649 with EGFR Fc [2]; 2.54 with EGFR Fc [3]; 2.67 in the assay with EGFR Fc [4]; 2.46 with EGFR Fc [6]; 0.648 with EGFR Fc [7]. Further, the OD450 with EGFR Fc [9] worked out at 1.33; with EGFR Fc [10], 1.11; with EGFR Fc [11], 2.79; in the assay with EGFR Fc [12], 2.61; with EGFR Fc [13], 0.158; with EGFR Fc [14] it was 2.37. Also, the OD450 was found to be 0.433 in the assay with EGFR Fc [15], 0.919 with EGFR Fc [16], 0.15 with EGFR Fc [17] and 1.14 with EGFR Fc [19]. Besides, the dissociation constant (Kd) in assay [5] turned out to be 1.87 nM. This molecule yielded a concentration giving a half-maximal response (EC50) with EGFR Fc [8] of 0.022 nM. Also, the on-rate (kon) in [18] came to 381000 M⁻¹ s⁻¹. The koff in assay [20] was 0.000715 s⁻¹.

B4: pgEG-SX3 (VHH, not shown: small tags and cut ends)
VHH: QVQLVESGGGLVQAGGSLRLSCVVYGSIFASTTMGWYRQAPGKQRELVATVYQSGTSVYADSVKGRFTASRDNAKKTVYLQMNSLKPEDTAVYYCHPRATDYWGRGTQVTVSS
Turning to B4, the OD450 with EGFR Fc [1] stood at 0.806; in the assay with EGFR Fc [2], 0.562; with EGFR Fc [3] it was 0.994; with EGFR Fc [4], 0.762; in the assay with EGFR Fc [6], 1.21; with EGFR Fc [7] it was 0.086. The OD450 with EGFR Fc [9] is 0.134; with EGFR Fc [10], 1.06; in the assay with EGFR Fc [11], 0.843; with EGFR Fc [12] it was 1.47; with EGFR Fc [13], 0.382; with EGFR Fc [14], 0.373. Further, the OD450 with EGFR Fc [15] turned out to be 0.482; with EGFR Fc [16] it was 0.723; with EGFR Fc [17] it was 0.336; in the assay with EGFR Fc [19], 0.979. Besides, the equilibrium dissociation constant (Kd) in assay [5] was determined as 0.602 nM. The molecule also returned an EC50 with EGFR Fc [8] of 0.382 nM. Also, the association rate constant (kon) in [18] turned out to be 457000 M⁻¹ s⁻¹. In [20], the koff is 0.000275 s⁻¹.

B5: pgEG-SX6 (VHH, not shown: small tags and cut ends)
VHH: QVQLVESGGGTVQAGGSLRLSCVASGMREDIFDMGWYRQAPGLQRELVATITSGGSTDYADSVKGRFTISRDNTENTLNLQMNMLKPEDTAVYYCNALYFPPSGGRSSEFWGQGTLVTVSS
For the molecule B5, the OD450 with EGFR Fc [1] was determined as 1.07; with EGFR Fc [2], 0.757; in the assay with EGFR Fc [3] it was 1; with EGFR Fc [4] it was 1.16; with EGFR Fc [6] it was 1.15; in the assay with EGFR Fc [7], 0.082. The OD450 stood at 0.139 with EGFR Fc [9]; 1.04 in the assay with EGFR Fc [10]; 1.83 in the assay with EGFR Fc [11]; 1.37 with EGFR Fc [12]; 0.668 with EGFR Fc [13]; 0.496 in the assay with EGFR Fc [14]. Further, the OD450 with EGFR Fc [15] stood at 0.606; with EGFR Fc [16] it was 0.928; with EGFR Fc [17], 0.646; with EGFR Fc [19], 0.956. In addition, the dissociation constant (Kd) in assay [5] worked out at 0.798 nM. In the assay with EGFR Fc [8], this molecule registered an EC50 of 0.12 nM. In [18], the association rate constant (kon) was 500000 M⁻¹ s⁻¹. In assay [20], the dissociation rate constant (koff) was found to be 0.000399 s⁻¹.

B6: pgEG-SX40 (VHH, not shown: small tags and cut ends)
VHH: QVQLVESGGGLVQAGGSLRLSCTGSGIRFSFYTLGWYRQAPGKQRELVAEIYSSDNAKYEDSVKGRFAISRDNAKNSVSLQMNSLKPEDTAVYYCNVRATDYWGPGTQVTVSS
On to B6, for which the OD450 was determined as 1.03 in the assay with EGFR Fc [1]; 0.633 with EGFR Fc [2]; 0.715 in the assay with EGFR Fc [3]; 0.461 with EGFR Fc [4]; 0.786 in the assay with EGFR Fc [6]; 0.121 with EGFR Fc [7]. Further, the OD450 with EGFR Fc [9] was 0.144; in the assay with EGFR Fc [10], 1.14; with EGFR Fc [11], 0.626; with EGFR Fc [12], 0.963; with EGFR Fc [13], 0.147; in the assay with EGFR Fc [14], 0.25. The OD450 was 0.414 with EGFR Fc [15], 0.922 with EGFR Fc [16], 0.151 in the assay with EGFR Fc [17] and 1.06 with EGFR Fc [19]. The Kd in assay [5] is 1.13 nM. The same molecule came in with an EC50 with EGFR Fc [8] of 0.769 nM. The kon in assay [18] came out at 358000 M⁻¹ s⁻¹. Moreover, the off-rate constant (koff) in assay [20] was 0.000406 s⁻¹.

B7: pgEG5 (VHH, not shown: small tags and cut ends)
VHH: QVQLVESGGGLVQPGGSLRLSCTASHNIFSDNAMAWSRQAPGAQRELVARIATGGNTYYPDSVKGRFTISRDNAKNTVYLQMNNLTPDDTAVYYCYAERWTGLEYSRTYWGQGTQVTVSS
Take B7: the OD450 is 1.16 in the assay with EGFR Fc [1]; 1.07 with EGFR Fc [2]; 2.35 with EGFR Fc [3]; 1.2 with EGFR Fc [4]; 2.33 with EGFR Fc [6]; 0.119 with EGFR Fc [7]. Besides, the OD450 with EGFR Fc [9] came out at 0.147; with EGFR Fc [10], 1.2; with EGFR Fc [11], 2.23; with EGFR Fc [12], 2.52; with EGFR Fc [13], 1.2; with EGFR Fc [14] it was 0.34. For the same molecule, the OD450 with EGFR Fc [15] is 1.11; with EGFR Fc [16], 1.18; with EGFR Fc [17] it was 1.22; with EGFR Fc [19] it was 1.15. Besides, the Kd in assay [5] came out at 10.8 nM. For the same molecule, in [5], the koff amounted to 0.00134 s⁻¹. In [5], the association rate constant (kon) was found to be 124000 M⁻¹ s⁻¹. Moreover, the EC50 with EGFR Fc [8] was determined as 0.426 nM.

The values above are taken from patent publication US20250376535A1 (BEIJING STARMAB BIOMED TECHNOLOGY, published 2025).
